In the experiment the target is 6xHis-eugenol-oxidase-StrepTag-II (recombinant eugenol oxidase from Rhodococcus jostii) (Rhodococcus sp. RHA1). The experiment in a line: SEC; pure EUGO on Superdex 200 10/300 GL (AKTA Pure), 100 uL loaded, 0.5 mL/min, running buffer 50 mM Tris-Base pH 8 with 150 mM NaCl; size estimated from a protein standard mix (15-600 kDa).

In general, stoichiometry N refers to the number of molecules, sites or subunits per partner or assembly. With “6xHis-eugenol-oxidase-StrepTag-II (recombinant eugenol oxidase from Rhodococcus jostii) (enzyme)”, the stoichiometry N is 2.

Values taken from PMC10638201, “Application of electrospun chitosan-based nanofibers as immobilization matrix for biomolecules” (Applied Microbiology and Biotechnology, 2023).
